The values that follow come from patent US20160282364A1 (published 2016).

Assay [1] addresses 31. Description: fluorescence polarization; without insulin. For orientation: Polarisation of emitted light reports the rotation of a fluorescent probe.
Assay [2] concerns the target 31 + insulin. In words: fluorescence polarization; Kapp, with 2.5 uM insulin.

B1: IDE (enzyme)
chain: MNNPAIKRIGNHITKSPEDKREYRGLELANGIKVLLISDPTTDKSSAALDVHIGSLSDPPNIAGLSHFLQHMLFLGTKKYPKENEYSQFLSEHAGSSNAFTSGEHTNYYFDVSHEHLEGALDRFAQFFLSPLFDESAKDREVNAVDSEHEKNVMNDAWRLFQLEKATGNPKHPFSKFGTGNKYTLETRPNQEGIDVRQELLKFHSAYYSSNLMAVVVLGRESLDDLTNLVVKLFSEVENKNVPLPEFPEHPFQEEHLKQLYKIVPIKDIRNLYVTFPIPDLQKYYKSNPGHYLGHLIGHEGPGSLLSELKSKGWVNTLVGGQKEGARGFMFFIINVDLTEEGLLHVEDIILHMFQYIQKLRAEGPQEWVFQELKDLNAVAFRFKDKERPRGYTSKIAGILHYYPLEEVLTAEYLLEEFRPDLIEMVLDKLRPENVRVAIVSKSFEGKTDRTEEWYGTQYKQEAIPDEVIKKWQNADLNGKFKLPTKNEFIPTNFEILPLEKEATPYPALIKDTAMSKLWFKQDDKFFLPKANLNFEFFSPFAYVDPLHSNMAYLYLELLKDSLNEYAYAAELAGLSYDLQNTIYGMYLSVKGYNDKQPILLKKIIEKMATFEIDEKRFEIIKEAYMRSLNNFRAEQPHQHAMYYLRLLMTEVAWTKDELKEALDDVTLPRLKAFIPQLLSRLHIEALLHGNITKQAALGIMQMVEDTLIEHAHTKPLLPSQLVRYREVQLPDRGWFVYQQRNEVHNNSGIEIYYQTDMQSTSENMFLELFAQIISEPAFNTLRTKEQLGYIVFSGPRRANGIQGLRFIIQSEKPPHYLESRVEAFLITMEKSIEDMTEEAFQKHIQALAIRRLDKPKKLSAESAKYWGEIISQQYNFDRDNTEVAYLKTLTKEDIIKFYKEMLAVDAPRRHKVSVHVLAREMDSNPVVGEFPAQNDINLSQAPALPQPEVIQNMTEFKRGLPLFPLVKPHINFMAAKL
Usually Kd stands for the equilibrium constant for the complex coming apart. In the case of B1, the results for the Kd in assay [1] and in assay [2] were 42 nM and 280 nM, respectively.
